The values below come from patent US20250269025A1 (AVENCELL THERAPEUTICS, published 2025).

No end group written: not given here.

Assay [1] has as its target T1, CD123 on CD123 positive AML cells (Oci-AML3, Molm-13, MV4-11, primary AML cells) (human, UniProt P26951 19-378).
T1 construct: whole, on cells; Endogenous CD123 on human AML cell lines; also called target antigen CD123
Put plainly: cellular binding assay per table caption, Molm-13 cells; Molm-13 cells.

The target in assay [2] is T2, human CD123-Fc (human, UniProt P26951 19-305, limits assumed).
T2 construct: Coupled to a CM5 sensor chip; also called soluble recombinant CD123; not shown: Fc part
T2 sequence (looked up): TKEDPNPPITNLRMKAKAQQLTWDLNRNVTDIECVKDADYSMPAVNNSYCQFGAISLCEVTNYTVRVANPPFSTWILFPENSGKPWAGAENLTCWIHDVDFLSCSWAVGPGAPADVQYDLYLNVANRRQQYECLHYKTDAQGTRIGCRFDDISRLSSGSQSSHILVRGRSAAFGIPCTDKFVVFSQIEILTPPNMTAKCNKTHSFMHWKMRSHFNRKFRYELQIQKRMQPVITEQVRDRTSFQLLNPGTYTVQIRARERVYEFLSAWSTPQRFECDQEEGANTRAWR
Put plainly: SPR, Biacore X100, human CD123-Fc on CM5 chip, 1:1 model; KD CD123 (first number of the cell). How it is done: (§1) Binding of different variants of the targeting module according to the invention was analyzed by SPR measurements using human CD123-Fc coupled to a CM5 sensor chip on a Biacore X100 device (FIG. 2). Targeting modules were purified monomer except for the targeting module according to SEQ ID No. 8. […] For data fitting and KD calculation a 1:1 binding model was applied.
A general note: In SPR one partner is held on a chip, and binding of the other changes the refractive index at the surface.

Assay [3] concerns the target T1, CD123 on CD123 positive AML cells …. Put plainly: cellular binding assay per table caption, Oci-AML3 cells; Oci-AML3 cells.
For assay [4], the target named is T3, La epitope 5B9 (SEQ ID No. 28) fused to human Fc domain (human, also: fused to human Fc domain, order, isotype, linker not given here).
T3 construct: Coupled to a CM5 sensor chip; not shown: human Fc domain
T3 chain: KPLPEVTDEY
Put plainly: SPR, Biacore X100, La epitope 5B9-human Fc on CM5 chip; KD 5B9 (second number of the cell). Here is the method:
(§2) Furthermore, binding of different variants of the targeting module according to the invention was analyzed using the La epitope 5B9 (SEQ ID No. 28) fused to human Fc domain which was coupled to a CM5 sensor chip on a Biacore X100 device (FIG. 3). The targeting modules were purified monomers. The targeting modules were concentrated between 2.47 to 200 nM and measured in technical duplicates. For data fitting and KD calculation a two-state-reaction binding model was applied.

Assay [5] has as its target T1, CD123 on CD123 positive AML cells …. Put plainly: flow cytometry on Oci-AML3 cells, anti-His-PE detection. Half-maximal binding from a four-parameter fit of gMFI. Unit taken from the concentration axis [M]. The curve has no upper plateau in the range shown. How it is done: (§3) Cellular binding of CD123-binding targeting modules (TM) was tested on CD123 positive target cell lines Oci-AML3 and Molm-13: A) SEQ ID No. 5 to Oci-AML3, B) SEQ ID No. 9 to Oci-AML3, C) SEQ ID No. 4 to Molm-13 and D) SEQ ID No. 6 to Molm-13. The affinity of TMs was analyzed by flow cytometry. The TMs were titrated on an AML cell lines and then detected by a mouse anti-His-tag antibody conjugated to phycoerythrin.
(§4) Different concentrations of R-TM123 were incubated with cells, washed and quantified. A dose-response curve was obtained when the geometric mean fluorescence (MFI) was plotted against the TM concentration.
(Flow cytometry measures light scatter and fluorescence of single cells or particles in a stream.)

For assay [6], the target named is T2, human CD123-Fc. Put plainly: SPR, Biacore X100, human CD123-Fc on CM5 chip, 1:1 model. Here is the method:
as §1

Assay [7] has as its target T3, La epitope 5B9 (SEQ ID No. 28) fused to …. Put plainly: SPR, Biacore X100, La epitope 5B9-human Fc on CM5 chip. Here is the method:
as §2

In assay [8] the target is T1, CD123 on CD123 positive AML cells …. Put plainly: flow cytometry on Molm-13 cells, anti-His-PE detection. Half-maximal binding from a four-parameter fit of gMFI. Unit taken from the concentration axis [M]. Here is the method:
as §3, §4

For assay [9] the target is unchanged. Put plainly: cellular binding assay per table caption, Oci-AML3 cells.
Assay [10] has the same target. Put plainly: cellular binding assay per table caption, Molm-13 cells.
The target of assay [11] is T2, human CD123-Fc. Put plainly: SPR, Biacore X100, human CD123-Fc on CM5 chip, 1:1 model; TM not purified monomer. Here is the method:
as §1

What is called EC50 is the concentration at which the effect is half-maximal. The term Kd denotes the concentration at which binding is half-saturated.

B1: targeting module according to SEQ ID No. 2 (reference) (bispecific antibody)
chain: EVQLQQSGPELVKPGASVKMSCKASGYTFTDYYMKWVKQSHGKSLEWIGDIIPSNGATFYNQKFKGKATLTVDRSSSTAYMHLNSLTSEDSAVYYCTRSHLLRASWFAYWGQGTLVTVSAASGGGGSGGGGSGGGGSDFVMTQSPSSLTVTAGEKVTMSCKSSQSLLNSGNQKNYLTWYLQKPGQPPKLLIYWASTRESGVPDRFTGSGSGTDFTLTISSVQAEDLAVYYCQNDYSYPYTFGGGTKLEIKAAARGQVQLVQSGAEVKKPGASVKVSCKASGYTFTHYYIYWVRQAPGQGLEWMGGVNPSNGGTHFNEKFKSRVTMTRDTSISTAYMELSRLRSDDTAVYYCARSEYDYGLGFAYWGQGTLVTVSSGGGGSGGGGSGGGGSDIVMTQSPDSLAVSLGERATINCKSSQSLLNSRTPKNYLAWYQQKPGQPPKLLIYWASTRKSGVPDRFSGSGSGTDFTLTISSLQAEDVAVYYCKQSYNLLTFGGGTKVEIKGPEQKLISEEDLNSAVDHHHHHH
notes: also called muCD123 + 5B9-VH-VL
As for B1, the EC50 in assay [1] was found to be 0.0023 nM; in [3], 0.0032 nM. Moreover, the values for the dissociation constant Kd in assay [2] and in [4] were 0.227 nM and 17 nM, respectively.

B2: targeting module according to SEQ ID No. 9 (bispecific antibody)
chain: EVQLVQSGAEVKKPGASVKMSCKASGYTFTDYYMKWVKQAPGQGLEWIGDIIPSNGATFYNQKFKGRATLTVDRSTSTAYMELSSLRSEDTAVYYCTRSHLLRASWFAYWGQGTLVTVSSASGGGGSGGGGSGGGGSDFVMTQSPDSLAVSLGERATINCESSQSLLNTGNQKNYLTWYLQKPGQPPKLLIYWASTRESGVPDRFSGSGSGTDFTLTISSVQAEDVAVYYCQNDYSYPYTFGGGTKLEIKAAARGDIVMTQSPDSLAVSLGERATINCKSSQSLLNSRTPKNYLAWYQQKPGQPPKLLIYWASTRKSGVPDRFSGSGSGTDFTLTISSLQAEDVAVYYCKQSYNLLTFGGGTKVEIKGGGGSGGGGSGASAAGGGGSGGGGSQVQLVQSGAEVKKPGASVKVSCKASGYTFTHYYIYWVRQAPGQGLEWMGGVNPSNGGTHFNEKFKSRVTMTRDTSISTAYMELSRLRSDDTAVYYCARSEYDYGLGFAYWGQGTLVTVSSGGGGSHHHHHHHH
notes: also called huCD123_4 + 5B9-VLVH
As to B2, the Kd in [5] was found to be 6.77 nM; in [6], 0.162 nM.

B3: targeting module according to SEQ ID No. 3 (bispecific antibody)
chain: GQVQLVQSGAEVKKPGSSVKVSCKASGYTFTDYYIHWVRQAPGQGLEWMGDIIPSNGATFYNQRFKGRVTITADESTSTAYMELSSLRSEDTAVYYCTRSHLLRASWFAYWGQGTLVTVSSASGGGGSGGGGSGGGGSDIVMTQTPLSLSVTPGQPASISCRSSQSLLNSGNQKNYLTWYLQKPGQSPQLLIYWASTRFIGVPDRFSGSGSGTDFTLKISRVEAEDVGVYYCQNDYSYPYTFGQGTKLEIKAAARGDIVMTQSPDSLAVSLGERATINCKSSQSLLNSRTPKNYLAWYQQKPGQPPKLLIYWASTRKSGVPDRFSGSGSGTDFTLTISSLQAEDVAVYYCKQSYNLLTFGGGTKVEIKGGGGSGGGGSGASAAGGGGSGGGGSQVQLVQSGAEVKKPGASVKVSCKASGYTFTHYYIYWVRQAPGQGLEWMGGVNPSNGGTHFNEKFKSRVTMTRDTSISTAYMELSRLRSDDTAVYYCARSEYDYGLGFAYWGQGTLVTVSSGGGGSHHHHHHHH
notes: also called huCD123_1 + 5B9-VL-VH
With B3, the dissociation constant Kd in [7] stood at 2 nM. This molecule came in with an EC50 in [3] of 23 nM.

B4: targeting module according to SEQ ID No. 6 (bispecific antibody)
chain: EVQLQQSGPELVKPGASVKMSCKASGYTFTDYYMKWVKQSHGKSLEWIGDIIPSNGATFYNQKFKGKATLTVDRSSSTAYMHLNSLTSEDSAVYYCTRSHLLRASWFAYWGQGTLVTVSAASGGGGSGGGGSGGGGSDFVMTQSPSSLTVTAGEKVTMSCKSSQSLLNSGNQKNYLTWYLQKPGQPPKLLIYWASTRESGVPDRFTGSGSGTDFTLTISSVQAEDLAVYYCQNDYSYPYTFGGGTKLEIKAAARGDIVMTQSPDSLAVSLGERVTMNCKSSQSLLNSRTPKNYLAWYQQKPGQSPKLLIYWASTRKSGVPDRFSGSGSGTDFTLTISSVQAEDVAVYYCKQSYNLLTFGGGTKLEIKGGGGSGGGGSGASAAGGGGSGGGGSQVQLVESGAEVVKPGASVKLSCKASGYAFTHYYIYWIKQAPGQGLEWIGGVNPSNGGTHFNEKFKSRATLTVDTSISTAYMELSRLRSDDTAVYYCTRSEYDYGLGFAYWGQGTLVTVSSGGGGSHHHHHHHH
notes: also called muCD123 + rs5B9-VL-VH
As to B4, the Kd in assay [8] was found to be 7.69 nM; in assay [2], 0.044 nM; in assay [4], 2.1 nM. Moreover, the 50% effective concentration (EC50) was 0.0062 nM in assay [9] and 0.0017 nM in assay [10].

B5: targeting module according to SEQ ID No. 8 (bispecific antibody)
chain: GQVQLVQSGAEVKKPGASVKMSCKASGYTFTDYYMKWVKQAPGQGLEWIGDIIPSNGATFYNQKFKGRATLTVDKSTSTAYMELSSLRSEDTAVYYCTRSHLLRASWFAYWGQGTLVTVSSASGGGGSGGGGSGGGGSDFVMTQSPDSLAVSLGERATMNCKSSQSLLNSGNQKNYLTWYLQKPGQPPKLLIYWASTRESGVPDRFSGSGSGTDFTLTISSVQAEDVAVYYCQNDYSYPYTFGGGTKLEIKAAARGDIVMTQSPDSLAVSLGERATINCKSSQSLLNSRTPKNYLAWYQQKPGQPPKLLIYWASTRKSGVPDRFSGSGSGTDFTLTISSLQAEDVAVYYCKQSYNLLTFGGGTKVEIKGGGGSGGGGSGASAAGGGGSGGGGSQVQLVQSGAEVKKPGASVKVSCKASGYTFTHYYIYWVRQAPGQGLEWMGGVNPSNGGTHFNEKFKSRVTMTRDTSISTAYMELSRLRSDDTAVYYCARSEYDYGLGFAYWGQGTLVTVSSGGGGSHHHHHHHH
notes: also called huCD123_3 + 5B9-VLVH
As for B5, the affinity in [11], expressed as Kd, was 0.131 nM.
